* marks the point of attachment. AMC = Cc1cc(=O)oc2cc(N*)ccc12
Assays:
[1] = biological target: Ta-P7 (Triticum aestivum L.)
[2] = biological target: Triticain-α (Triticum aestivum L.)
[3] = biological target: Ta-V6 (Triticum aestivum L.)

KM of Ac-PLVQ-AMC hydrolysis, pH 3.6, 37 °C [1]: 44.7 µM | KM of Ac-PLVQ-AMC hydrolysis, pH 4.6, 37 °C [1]: 32.2 µM | KM of Ac-PLVQ-AMC hydrolysis, pH 5.6, 37 °C [1]: 24.5 µM | KM of Ac-PLVQ-AMC hydrolysis, pH 6.5, 37 °C [1]: 31.4 µM | KM of Ac-PLVQ-AMC hydrolysis, pH 7.5, 37 °C [1]: 35.3 µM | KM of Ac-PLVQ-AMC hydrolysis, pH 3.6, 37 °C [2]: 21.5 µM | KM of Ac-PLVQ-AMC hydrolysis, pH 4.6, 37 °C [2]: 34.6 µM | KM of Ac-PLVQ-AMC hydrolysis, pH 5.6, 37 °C [2]: 46 µM | KM of Ac-PLVQ-AMC hydrolysis, pH 6.5, 37 °C [2]: 49.4 µM | KM of Ac-PLVQ-AMC hydrolysis, pH 7.5, 37 °C [2]: 583 µM | KM of Ac-PLVQ-AMC hydrolysis, pH 3.6, 37 °C [3]: 16.4 µM | KM of Ac-PLVQ-AMC hydrolysis, pH 4.6, 37 °C [3]: 20.5 µM | KM of Ac-PLVQ-AMC hydrolysis, pH 5.6, 37 °C [3]: 22.6 µM | KM of Ac-PLVQ-AMC hydrolysis, pH 6.5, 37 °C [3]: 26.9 µM | KM of Ac-PLVQ-AMC hydrolysis, pH 7.5, 37 °C [3]: 29.2 µM
B1: acetyl-Pro-Leu-Val-Gln-7-amino-4-methylcoumarin (peptide)
peptide: Ac-PLVQ-{AMC}
SMILES: CC(=O)N1CCC[C@H]1C(=O)N[C@@H](CC(C)C)C(=O)N[C@H](C(=O)N[C@@H](CCC(N)=O)C(=O)Nc1ccc2c(C)cc(=O)oc2c1)C(C)C

— article PMC12030614
